We go through 1 molecule from patent publication US20190060366A1, “HIGHLY ENGRAFTABLE HEMATOPOIETIC STEM CELLS” (President and Fellows of Harvard College, priority 2016, published 2019).

Test [1] relates to peripheral blood mononuclear cells (PBMCs). As to the kind of experiment: Limiting dilution competitive transplants and secondary transplants of mobilized grafts. It counts as in vivo. The settings on record: secondarily transplanted mice; n=16 mice/group, P<0.01.
The next test deals with CD34+ cells. The note with it: cited from earlier work.

B1: G-CSF: hematopoietic growth factor used clinically to mobilize HSC and HPC; comparator regimen (protein, UniProt P09919 31-207, looked up)
Granulocyte …: TPLGPASSLPQSFLLKCLEQVRKIQGDGAALQEKLVSECATYKLCHPEELVLLGHSLGIPWAPLSSCPSQALQLAGCLSQLHSGLFLYQGLLQALEGISPELGPTLDTLQLDVADFATTIWQQMEELGMAPALQPTQGAMPAFASAFQRRAGGVLVASHLQSFLEVSYRVLRHLAQP
On to B1, for which, in test [1], the “competitiveness of graft as measured by contribution to chimerism” value is reported as “remained static”. Moreover, the “patients that fail to mobilize an optimal CD34+ cell dose for autologous transplantation” value with CD34+ cells (autologous transplantation patients) was “Up to 60%”. Moreover, in the test on CD34+ cells (normal, healthy donors), the “poor mobilization in response to G-CSF, share of normal, healthy donors” value is given as 15%.
